In test [1] the target is T1, REGN2431 (hmm.hTfRC): monomeric human Tfrc ectodomain (C89-F760) with N-terminal hexahistidine-myc-myc tag (human, UniProt P02786 89-760).
T1 construct: also called hmm.hTfR(C89-F763); hTFR-mmh
The experiment in a line: SPR Biacore, IgG captured by anti-hFc, 25 C. How it is done: (§1) Biacore binding kinetics assays were conducted for the interaction of 32 anti-human TfR IgG1 monoclonal antibodies from CHO supernatants with TfR reagents at 25° C.
(§2) Equilibrium dissociation constants (KD) for the interaction of anti-TfR monoclonal antibodies with human and fascicularis monkey TfR ecto domain recombinant proteins were determined using a real-time surface plasmon resonance (SPR) based Biacore S200 biosensor. All binding studies were performed in 10 mM HEPES, 150 mM NaCl, 3 mM EDTA, and 0.05% v/v surfactant Tween-20, pH 7.4 (HBS-EP) running buffer at […]. The Biacore CM5 sensor surface was first derivatized by amine coupling with a monoclonal mouse anti-human Fc antibody (REGN2567) followed by a step to capture anti-TfR monoclonal antibodies in CHO conditioned media. […] The dissociation of TfR bound to anti-TfR monoclonal antibodies was monitored for 3 minutes in HBS-EP running buffer. At the end of each cycle, the anti-TfR monoclonal antibodies capture surface was regenerated using a 12-see injection of 20 mM H₃PO₄. The association rate (ka) and dissociation rate (kd) were determined by fitting the real-time binding sensorgrams to a 1:1 binding model with mass transport limitation using Scrubber 2.0c software. The dissociation equilibrium constant (KD) and dissociative half-life (t %) were calculated from the kinetic rate constants as: […]

For test [2], the target named is T2, REGN2054 (mf TFRC ecto-mmh): monomeric monkey (cyno) Tfrc ectodomain (C89-F760) with C-terminal … (monkey (cyno, Macaca fascicularis), UniProt H9EXL1 89-760).
T2 construct: range 89-760; also called mfTFR-mmh; mfTfR-mmh
T2 sequence (chain, as listed by the source): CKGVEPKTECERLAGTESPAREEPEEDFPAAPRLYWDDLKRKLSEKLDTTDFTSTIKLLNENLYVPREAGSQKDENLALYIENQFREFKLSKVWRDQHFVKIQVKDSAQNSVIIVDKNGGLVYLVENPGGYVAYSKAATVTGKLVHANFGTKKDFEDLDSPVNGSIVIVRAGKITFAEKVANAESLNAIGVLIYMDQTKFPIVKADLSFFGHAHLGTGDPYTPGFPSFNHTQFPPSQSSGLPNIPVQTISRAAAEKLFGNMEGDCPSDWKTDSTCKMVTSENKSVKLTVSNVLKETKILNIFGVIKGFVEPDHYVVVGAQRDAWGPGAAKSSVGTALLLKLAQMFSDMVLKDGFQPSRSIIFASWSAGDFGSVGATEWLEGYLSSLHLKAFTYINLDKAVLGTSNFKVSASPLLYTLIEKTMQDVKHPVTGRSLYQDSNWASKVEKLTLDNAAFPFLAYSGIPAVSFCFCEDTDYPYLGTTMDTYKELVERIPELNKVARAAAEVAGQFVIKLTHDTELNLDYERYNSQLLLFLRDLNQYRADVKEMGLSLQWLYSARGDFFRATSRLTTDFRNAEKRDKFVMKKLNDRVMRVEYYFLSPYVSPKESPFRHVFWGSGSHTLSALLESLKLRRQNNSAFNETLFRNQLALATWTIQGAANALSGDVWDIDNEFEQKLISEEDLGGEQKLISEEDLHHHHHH
The experiment in a line: SPR Biacore, IgG captured by anti-hFc, 25 C. How it is done:
as §1, §2

Substitutions are numbered along the chain they refer to. Bounds are passed on as bounds.

T1 sequence (P02786 other isoform, or with tags, fused parts or gaps): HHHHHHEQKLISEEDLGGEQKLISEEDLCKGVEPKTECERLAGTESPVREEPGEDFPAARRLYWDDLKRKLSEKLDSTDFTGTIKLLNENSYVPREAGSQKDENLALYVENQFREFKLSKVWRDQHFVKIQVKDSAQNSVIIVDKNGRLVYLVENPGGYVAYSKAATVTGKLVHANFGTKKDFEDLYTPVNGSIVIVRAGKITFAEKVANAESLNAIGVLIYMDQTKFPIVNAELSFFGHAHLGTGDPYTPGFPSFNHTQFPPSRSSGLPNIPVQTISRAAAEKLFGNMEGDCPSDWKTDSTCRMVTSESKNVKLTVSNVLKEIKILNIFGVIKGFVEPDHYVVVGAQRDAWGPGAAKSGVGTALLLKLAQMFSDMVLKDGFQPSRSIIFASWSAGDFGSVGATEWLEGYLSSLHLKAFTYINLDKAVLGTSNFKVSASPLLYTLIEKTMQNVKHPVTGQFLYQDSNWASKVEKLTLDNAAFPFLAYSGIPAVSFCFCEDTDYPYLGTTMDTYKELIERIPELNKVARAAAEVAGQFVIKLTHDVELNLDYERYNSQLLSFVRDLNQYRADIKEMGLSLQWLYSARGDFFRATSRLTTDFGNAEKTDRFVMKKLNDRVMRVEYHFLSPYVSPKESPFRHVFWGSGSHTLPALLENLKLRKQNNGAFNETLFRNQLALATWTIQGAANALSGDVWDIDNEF

B1: 12845B anti-hTfR monoclonal antibody (bivalent IgG1) (antibody, V domains shown)
VH: EVQLVESGGGLVQPGGSLRLSCAASGFTVSNYEMNWVRQAPGKGLEWVSYISSSTSNIYYADSVKGRFTISRDNAENSLYLQMNSLRVEDTAVYYCVRDGIVVVPVGRGYYYYGLDVWGQGTTVTVSS
VL: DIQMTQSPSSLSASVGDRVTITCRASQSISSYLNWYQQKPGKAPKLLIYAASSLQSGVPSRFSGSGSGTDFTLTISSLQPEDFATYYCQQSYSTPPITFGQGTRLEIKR
notes: hIgG1/kappa; also called H1H12845B; REGN17513
On to B1, for which the t1/2 in test [1] was 57.9 min.

B2: 12850B anti-hTfR monoclonal antibody (bivalent IgG1) (antibody, V domains shown)
VH: QVQLVQSGAEVKKPGSSVKVSCKASGGTFNTYAITWVRQAPGQGLEWMGGIIPISGIAEYAQKFQGRVTITTDDSSTTAYMELNSLRSEDTAVYYCASWNYALYYFYGMDVWGRGTTVTVSS
VL: not shown
notes: hIgG1/kappa; also called H1H12850B; REGN17516
Regarding B2, the values for the t1/2 in test [2] and in test [1] were 7.3 min and 657 min, respectively.

B3: 69307 anti-hTfR monoclonal antibody (bivalent IgG1) (antibody, V domains shown)
VH: EVQLVESGGGLVQPGGSLRLSCTASGFTFSNYWMTWVRQAPGKGLEWVANIKEDGSEKEYVDSVKGRFTISRDNAKNSLYLQMNSLRGEDTAVYYCARDGEQLVDYYYYYVMDVWGQGTTVTVSS
VL: DIQMTQSPSSVSASVGDRVTITCRASQGISSWLAWYQQKPGKAPKLLIYAASSLQSGVPSRFSGSGSGTDFTLTISSLQPEDFATYYCQKADSLPYAFGQGTKLEIKR
notes: hIgG1/kappa
In the case of B3, the t1/2 in test [1] came to 271 min.

B4: 12812B anti-hTfR monoclonal antibody (bivalent IgG1) (antibody, V domains shown)
VH: QVQLVQSGAEVKKPGSSVRVSCKASRGTFSSYAISWVRQAPGQGLEWMGGIIPIFGTANYAQKFLARVTITADESTSTAYMELSSLRSEDTAVYYCAREKGWNYFDYWGQGTLVTVSS
VL: B3 VL with S9P, K90Q, D92N, L94F, Y96R, A97T, L104V
notes: hIgG1/kappa; also called H1H12812B; REGN17708
Take B4: the t1/2 in test [1] was determined as 8.8 min.

B5: 69329 anti-hTfR monoclonal antibody (bivalent IgG1) (antibody, V domains shown)
VH: B3 VH with T23A, E59D
VL: B3 VL with D92N, L94F, A97T
notes: hIgG1/kappa
For the molecule B5, the t1/2 in test [1] amounted to 62.2 min.

B6: 12799B anti-hTfR monoclonal antibody (bivalent IgG1) (antibody, V domains shown)
VH: QITLKESGPTLVKPTQTLTLTCTFSGFSLSTSGVGVVWIRQPPGKALEWLALIYWNDHKRYSPSLGSRLTITKDTSKNQVVLTMTNMDPVDTATYYCAHYSGSYSYYYYGLDVWGQGTTVTVSS
VL: DIQMTQSPSSVSASVGDRVTITCRASQGIASWLAWYQQKPGKAPELLIYAASSLQGGVPSRFSGSGSGTDFTLTISSLQPEDFAIYYCQQANYFPWTFGQGTKVEIKR
notes: hIgG1/kappa; also called H1H12799B; REGN17508
In the case of B6, the t1/2 in test [2] was found to be 71.2 min; in test [1], 174 min.

B7: 12834B anti-hTfR monoclonal antibody (bivalent IgG1) (antibody, V domains shown)
VH: QVQLVQSGAEVKKPGASVKVSCKASGYTFTSYGISWVRQAPGQGLEWMGWISVYHGNTNYAQKFQGRVTMTTDTSTSTAYMELRSLRSDDTAVYYCAREGYYDFWSGYYPFDYWGQGTLVTVSS
VL: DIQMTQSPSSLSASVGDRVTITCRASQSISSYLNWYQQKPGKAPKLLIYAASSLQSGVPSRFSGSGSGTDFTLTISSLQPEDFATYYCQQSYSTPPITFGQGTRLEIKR
notes: hIgG1/kappa
B7 came in with a t1/2 in test [1] of 2.6 min.

B8: 69348 anti-hTfR monoclonal antibody (bivalent IgG1) (antibody, V domains shown)
VH: QVQLVESGGGVVQPGRSLRLSCAASGFTFTTYGMHWVRQAPGKGLEWVAVIWYDGSNKYYGDSVKGRFTISRDNSKNTLYLQMNSLRVDDTAVYYCTRTHGYTRSSDGFDYWGQGTLVTVSS
VL: DIQMTQSPSSLSASVGDRVTITCRASQSIRNVLGWFQQKPGKAPQRLIYAASSLQSGVPSRFSGSGSGTEFTLTISSLQPEDFATYYCLQHNFYPLTFGGGTKVEIKR
notes: hIgG1/kappa
As to B8, the t1/2 was determined as 25.1 min in test [2] and 67.2 min in test [1].

B9: 12795B anti-hTfR monoclonal antibody (bivalent IgG1) (antibody, V domains shown)
VH: EVQLVESGGGLVQPGGSLRLSCATSGFTFTSYDMKWVRQAPGLGLEWVSAISGSGGNTYYADSVKGRFTISRDNSRNTLYLQMNSLRAEDTAVYYCTRSHDFGAFDYFDYWGQGTLVTVSS
VL: B8 VL with S28G, N31D, V32H, L33F, F36Y, Q45K, Q55H, H91Y, N92D, F93T
notes: hIgG1/kappa
For B9, the t1/2 in test [2] is 162 min; in test [1] it was above 1160 min.

B10: 69326 anti-hTfR monoclonal antibody (bivalent IgG1) (antibody, V domains shown)
VH: EVQLVESGGGLVQPGGSLRLSCAVSGFIFSSYEMNWVRQAPGKGLEWVSYISSSGSTIFYADSVKGRFTISRDNAKNSLYLQMNSLRAEDTAVYYCVSGVVLFDVWGQGTMVTVSS
VL: EIVMTQSPATLSVSPGERATLSCRASQSVSSNFAWYQQKPGQAPRLLIYSASSRATGIPVRFSGSGSGTEFTLTISSLQSEDFAVYYCQQYNIWPRTFGQGTKVEIKR
notes: hIgG1/kappa
B10 registered a t1/2 in test [1] of 45.1 min.

B11: 12841B anti-hTfR monoclonal antibody (bivalent IgG1) (antibody, V domains shown)
VH: EVQLVESGGGLVQPGGSLRLSCAASGFTFSNYWMNWVRQAPGKGLEWVANIKEDGGKKLYVDSVKGRFTISRDNAKNSLFLQMNSLRAEDTAVYYCAREDTTLVVDYYYYGMDVWGQGTTVTVSS
VL: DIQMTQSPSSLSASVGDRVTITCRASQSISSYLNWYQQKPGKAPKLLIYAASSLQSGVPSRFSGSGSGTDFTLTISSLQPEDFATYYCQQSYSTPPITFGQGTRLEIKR
notes: hIgG1/kappa; also called H1H12841B; REGN17511
The molecule B11 registered a t1/2 in test [1] of 99.8 min.

B12: 12816B anti-hTfR monoclonal antibody (bivalent IgG1) (antibody, V domains shown)
VH: QVQLVESGGGLVKPGGSLRLSCAASGFTFSDYYMNWIRQAPGKGLEWVSYISSSGTTIYYADSVKGRFTISRDNAKKSLYLEMNSLRAEDTAVYYCAREGYGNDYYYYGIDVWGQGTTVTVSS
VL: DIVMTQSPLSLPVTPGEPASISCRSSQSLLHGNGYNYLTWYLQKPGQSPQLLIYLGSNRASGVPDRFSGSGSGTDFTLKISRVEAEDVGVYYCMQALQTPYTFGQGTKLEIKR
notes: hIgG1/kappa
For B12, the t1/2 in test [2] came out at 23.8 min; in test [1], 34.3 min.

B13: 69261 anti-hTfR monoclonal antibody (bivalent IgG1) (antibody, V domains shown)
VH: B12 VH with D31V, T56S, K77N, E82Q, A97G, G102S, N103G, D104T, Y106S, I110M
VL: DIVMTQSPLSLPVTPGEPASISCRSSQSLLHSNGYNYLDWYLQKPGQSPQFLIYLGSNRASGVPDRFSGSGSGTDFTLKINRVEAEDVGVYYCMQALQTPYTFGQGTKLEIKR
notes: hIgG1/kappa
B13: the t1/2 in test [2] stood at 28.7 min; in test [1] it was 143 min.

B14: 12839B anti-hTfR monoclonal antibody (bivalent IgG1) (antibody, V domains shown)
VH: QVQLVESGGGVVQPGRSLRLSCAASGFPFSNYVMYWVRQAPGKGLEWVALIFFDGKKNYHADSVKGRFTITRDNSKNMLYLQMNSLRPEDAAVYYCAKIHCPNGVCYKGYYGMDVWGQGTTVTVSS
VL: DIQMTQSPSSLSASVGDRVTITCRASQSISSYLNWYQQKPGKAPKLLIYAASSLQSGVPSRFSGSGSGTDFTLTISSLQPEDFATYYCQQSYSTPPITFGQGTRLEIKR
notes: hIgG1/kappa; also called H1H12839B; REGN17510
B14 came in with a t1/2 in test [1] of 217 min.

B15: 12833B anti-hTfR monoclonal antibody (bivalent IgG1) (antibody, V domains shown)
VH: QVQLVESGGGVVQPGRSLRLSCAASGFTFSSFGMHWVRQAPGKGLEWVIFISYDGSDKYYADSVKGRFAISRDSSKNTLYLQMNSLRAEDTAVYYCAKENGILTDSYGMDVWGQGTTVTVSS
VL: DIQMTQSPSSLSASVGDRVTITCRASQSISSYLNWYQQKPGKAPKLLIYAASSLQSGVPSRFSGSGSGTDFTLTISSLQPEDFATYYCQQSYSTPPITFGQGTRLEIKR
notes: hIgG1/kappa
As for B15, the t1/2 in test [2] was determined as 23.8 min; in test [1], 45.9 min.

B16: 12798B anti-hTfR monoclonal antibody (bivalent IgG1) (antibody, V domains shown)
VH: EVQLVESGGDLVQPGRSLRLSCAASGFTFDDYAMHWVRQAPGKGLEWVSGISWNSATRVYADSVKGRFTISRDNAKNFLYLQMNSLRSEDTALYHCAKDMDISLGYYGLDVWGQGTTVTVSS
VL: not shown
notes: hIgG1/kappa; also called H1H12798B; REGN17507
As to B16, the results for the t1/2 in test [2] and in test [1] were 9 min and 183 min, respectively.

B17: 69340 anti-hTfR monoclonal antibody (bivalent IgG1) (antibody, V domains shown)
VH: EVQLVESGGGLVQPGRSLRLSCAASGFTFDDKAMHWVRQVPGKGLEWISGISWNSGTIGYADSVKGRFIISRDNAKNSLYLQMNSLRAEDTALYYCAKDGDTSGWYWYGLDVWGQGTTVTVSS
VL: EIVLTQSPATLSLSPGERATLSCRASQSVSSYLAWYQQKPGQAPRLLIHDVSNRATGIPARFSGSGSGTDFTLTISSLEPEDFVVYYCQQRSDWPITFGQGTRLEIKR
notes: hIgG1/kappa
B17: the t1/2 is 16 min in test [2] and 185 min in test [1].

B18: 31863B anti-hTfR monoclonal antibody (bivalent IgG1) (antibody, V domains shown)
VH: EVQLVESGGGLVQPGGSLRLSCAASGFTFNSYAMTWVRQAPGKGLEWVSFIGGSTGNTYYAGSVKGRFTISSDNSKKTLYLQMNSLRAEDTAVYYCAKGGAARRMEYFQHWGQGTLVTVSS
VL: DIQMTQSPSSLSASIGDRVTITCRASQGISNYLAWYQQKPGKVPKLLIYAASTLQSGVPSRFSGSGSGTDFTLTISSLQPEDVATYYCQNHNSVPLTFGGGTKVEIKR
notes: hIgG1/kappa
Regarding B18, the figures for the t1/2 in test [2] and in test [1] were 3.9 min and above 1160 min, respectively.

B19: 69331 anti-hTfR monoclonal antibody (bivalent IgG1) (antibody, V domains shown)
VH: QVQLVESGGGVVQPGRSLRLSCIASGFTFSVYGIHWVRQAPGKGLEWMAVISHDGNIKHYADSVKGRFTISRDNSKNTLYLQINSLRTEDTAVYYCAKDTWNSLDTFDIWGQGTMVTVSS
VL: B18 VL with M4L, I15V, R24W, N31S, V43A, D70E, V83F, N90Q, H91L, V94Y
notes: hIgG1/kappa
B19: the t1/2 in test [2] was 1.2 min; in test [1], 2.5 min.

B20: 69263 anti-hTfR monoclonal antibody (bivalent IgG1) (antibody, V domains shown)
VH: EVQLVESGGGLVQPGRSLRLSCAVSGFTFDDYAMHWVRQAPGKGLEWVSGISWNSGTRGYADSVKGRFTISRDNAKNSLYLQMNSLRGEDTALYYCVKDITISPNYYGMDVWGQGTTVTVSS
VL: B18 VL with I15V, G28D, N31H, L33S, V43L, K45N, T72S, I75T, N90K, H91Y
notes: hIgG1/kappa
As to B20, the t1/2 came to 3.1 min in test [2] and 10 min in test [1].

B21: 31874B anti-hTfR monoclonal antibody (bivalent IgG1) (antibody, V domains shown)
VH: EVQLVESGGGLVQPGGSLRLSCAASGFAFSSYAMTWVRQAPGKGLEWVSVISGTGGSTYYADSVKGRFTISRDNSKNTLYLQMNSLRAEDTAVYYCAKGGAARRMEYFQYWGQGTLVTVSS
VL: B18 VL with I15V, K45N, N90K, H91Y, V94A
notes: hIgG1/kappa; also called H1H31874B; REGN17517
As for B21, the t1/2 was determined as 1.2 min in test [2] and 100 min in test [1].

B22: 69323 anti-hTfR monoclonal antibody (bivalent IgG1) (antibody, V domains shown)
VH: EVQLVESGGGLVQPGRSLRLSCAASGFTFDDYAMHWVRQAPGKGLEWVSGISWNSGYIGYADSVKGRFTISRDNAENSLHLQMNSLRAEDTALYYCARGGSTLVRGVKGGYYGMDVWGQGTTVTVSS
VL: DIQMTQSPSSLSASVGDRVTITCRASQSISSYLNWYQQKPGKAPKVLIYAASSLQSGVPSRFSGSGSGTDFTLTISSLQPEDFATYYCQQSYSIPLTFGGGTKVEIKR
notes: hIgG1/kappa
On to B22, for which the t1/2 in test [2] came to 1.1 min; in test [1], 64.1 min.
